Biological target: 6His-Nup60 aa27–539ΔHRΔFG-mGFP-StrepII (budding yeast (S. cerevisiae), UniProt P39705 27-539, ΔHR (aa48–162) | ΔFG (aa381–504))
Assay: GUV co-recruitment assay

B1: 6His-SUMO-Nup2 aa83–136–TagmBFPII-StrepII (domain or fragment, budding yeast (S. cerevisiae), UniProt P32499 83-136, looked up)
chain: NSPTTESNSRLKALNLQFKAKVDDLVLGKPLADLRPLFTRYELYIKNILEAPVK
Question: Does B1 bind?
Answer: binds

— PMC8836807 (Science Advances, 2022)
